The values that follow come from PMC5066248.

As a reminder, the stoichiometry N is the number of molecules, sites or subunits per partner or assembly.

In this experiment the target is His6-GroEL. The experiment is described as follows: cryo-EM structure; His6-GroEL captured from clarified E. coli lysate on Ni2+-activated BSA-PABA-GO-NTA coated lacey carbon 400 mesh grids; single particle analysis of 5363 particles in EMAN 2.1 with imposed D7 symmetry; 8.1 Å (gold standard, 0.143 criteria).

His6-GroEL, sequence (A1AJ51 2-548): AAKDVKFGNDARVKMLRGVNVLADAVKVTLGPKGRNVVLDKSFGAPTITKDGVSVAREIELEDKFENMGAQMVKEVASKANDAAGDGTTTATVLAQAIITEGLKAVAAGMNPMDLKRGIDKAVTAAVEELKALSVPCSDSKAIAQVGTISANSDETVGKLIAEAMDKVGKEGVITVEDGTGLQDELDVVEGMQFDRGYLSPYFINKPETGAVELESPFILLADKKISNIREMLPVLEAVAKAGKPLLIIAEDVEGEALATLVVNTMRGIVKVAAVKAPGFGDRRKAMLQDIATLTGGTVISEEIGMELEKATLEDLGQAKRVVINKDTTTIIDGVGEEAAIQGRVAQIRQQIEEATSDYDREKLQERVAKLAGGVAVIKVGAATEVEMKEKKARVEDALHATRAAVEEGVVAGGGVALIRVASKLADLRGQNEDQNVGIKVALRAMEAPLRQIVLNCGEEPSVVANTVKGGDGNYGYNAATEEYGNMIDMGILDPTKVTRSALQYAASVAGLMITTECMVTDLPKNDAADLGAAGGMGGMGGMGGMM

His6-GroEL (natural protein) had a stoichiometry N of 14.
